# Assay results published in publication PMC3210814.
# Columns and labels:
# [1] = molecular target: bovine pancreatic trypsin (bovine); experiment: enzyme inhibition assay (chromogenic substrate), inhibition against inhibitor concentration; trypsin 400 nM incubated with 0 to 400 nM rSdPI for 30 min; 100 mM Tris-HCl pH 8.0, 10 mM CaCl2, 25°C
# [2] = molecular target: bovine pancreatic trypsin (bovine); experiment: enzyme inhibition assay (chromogenic substrate), Lineweaver-Burk plots and replot of the slopes; trypsin 400 nM pre-incubated with the inhibitor for 30 min; 100 mM Tris-HCl pH 8.0, 10 mM CaCl2, 25°C; substrate Nα-benzoyl-L-arginine 4-nitroanilide 0.1 to 0.8 mM; p-nitroaniline read at 405 nm for 5 min
# bovine pancreatic trypsin (bovine), sequence (P00760 24-246): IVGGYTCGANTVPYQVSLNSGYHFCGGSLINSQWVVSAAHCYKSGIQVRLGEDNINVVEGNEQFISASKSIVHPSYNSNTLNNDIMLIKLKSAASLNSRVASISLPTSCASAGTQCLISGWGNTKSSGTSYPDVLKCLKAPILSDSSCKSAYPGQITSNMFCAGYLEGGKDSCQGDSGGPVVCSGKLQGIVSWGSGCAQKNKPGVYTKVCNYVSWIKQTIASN
Binder,stoichiometry N [1],Ki [2] [nM]
"recombinant SdPI peptide (scorpion-derived protease inhibitor), wild type (peptide) KNKCQLPSDVGKGKASFTRYYYNEEGGKCETFIYGGVGGNSNNFLTKEDCCRECAQGSC",1,160
SdPI G13F mutant (peptide) KNKCQLPSDVGKFKASFTRYYYNEEGGKCETFIYGGVGGNSNNFLTKEDCCRECAQGSC,,260
SdPI Ala15Phe mutant (peptide) KNKCQLPSDVGKGKFSFTRYYYNEEGGKCETFIYGGVGGNSNNFLTKEDCCRECAQGSC,,62000
SdPI K12A mutant (peptide) KNKCQLPSDVGAGKASFTRYYYNEEGGKCETFIYGGVGGNSNNFLTKEDCCRECAQGSC,,290
